# Publication PMC12771579, “Distinct classes of gut bacterial molybdenum-dependent enzymes produce urolithins” (Proceedings of the National Academy of Sciences of the …, 2025)
# Assays:
# Experiment in all cases: continuous absorbance assay, methyl viologen, initial rates
# Details in all cases: 200 µM methyl viologen, 100 µM sodium dithionite, 20 mM MOPS, 300 mM NaCl, pH 7.0, 30 °C, anaerobic
# Eadh3 = tested on: T1, Eadh3; type: biochemical, Ellagibacter isourolithinifaciens
# T1 construct: recombinant, expressed in G. urolithinfaciens, purified; bis-MGD enzyme without signal peptide; tag only in SI
# Excerpt: continuous absorbance assay, methyl viologen, initial rates on Eadh3 | Eadh3 converted urolithin C to isourolithin A via C8-OH dehydroxylation | urolithin M6 was metabolized more readily by Eadh2 than by Eadh3
# [1] = tested on: T2, O=c1oc2c(O)c(O)ccc2c2c(O)c(O)c(O)cc12; type: biochemical, Gordonibacter urolithinfaciens
# T2 construct: recombinant, cumate-inducible expression in G. urolithinfaciens (called native host), purified anaerobically; bis-MGD enzyme without signal peptide; tag only in SI
# [2] = tested on: T3, O=c1oc2cc(O)ccc2c2c(O)c(O)c(O)cc12; type: biochemical, Gordonibacter urolithinfaciens
# T3 construct: recombinant, cumate-inducible expression in G. urolithinfaciens (called native host), purified anaerobically; bis-MGD enzyme without signal peptide; tag only in SI
# [3] = tested on: T2, O=c1oc2c(O)c(O)ccc2c2c(O)c(O)c(O)cc12; type: biochemical, Gordonibacter urolithinfaciens; remark: listed apart in the source
# Excerpt: continuous absorbance assay, methyl viologen, initial rates on Eadh1 | Eadh1 (C4-OH dehydroxylation of urolithin M5 to urolithin M6) | can accept urolithin D as a substrate to produce urolithin C
compound,measurement,setting,value
O=c1oc2cc(O)ccc2c2c(O)c(O)c(O)cc12 [urolithin M6],Km,Eadh3,78.4 ± 10.6 µM
O=c1oc2cc(O)ccc2c2cc(O)c(O)cc12 [urolithin C],Km,Eadh3,19.9 ± 2.1 µM
Eadh2 (Gordonibacter sp. 28C),Km,[1],34.1 ± 6.4 µM
same,kcat,[1],0.42 ± 0.02 s⁻¹
same,Km,[2],13.8 ± 2.9 µM
same,kcat,[2],0.65 ± 0.03 s⁻¹
Eadh1 (Gordonibacter sp. 28C),Km,[3],11.8 ± 2.5 µM
same,kcat,[3],8.60 ± 0.49 s⁻¹
